Experimental data published in paper doi:10.1101/2025.01.28.635281 (bioRxiv, 2025).

Biological target: T1, Bacillus subtilis Sfp (Surfactin synthetase activating enzyme, 4'-phosphopantetheinyl transferase) (Bacillus subtilis, UniProt P39135 1-224)
T1 sequence (looked up): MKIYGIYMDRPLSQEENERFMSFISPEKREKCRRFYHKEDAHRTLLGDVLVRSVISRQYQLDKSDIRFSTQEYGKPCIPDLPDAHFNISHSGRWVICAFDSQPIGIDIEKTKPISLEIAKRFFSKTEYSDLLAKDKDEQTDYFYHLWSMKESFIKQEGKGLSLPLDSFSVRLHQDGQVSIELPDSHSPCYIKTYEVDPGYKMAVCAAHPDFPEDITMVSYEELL
Experiment: NMR titration

B1: S36A mutant of E. coli acyl carrier protein (natural protein)
chain: STIEERVKKIIGEQLGVKQEEVTNNASFVEDLGADALDTVELVMALEEEFDTEIPDEEAEKITTVQAAIDYINGHQA
- binding result: binds
